Experimental findings from patent publication US20220380421A1 (University of California, published 2022) are described below.

For one assay, the target named is T1, Myc-tagged Apo-SpyCas9 (Streptococcus pyogenes, UniProt Q99ZW2 1-1368).
T1 construct: not shown: 3xMyc tag at the C-terminus
Nature of the assay: GST-Acr immunoprecipitation from P. aeruginosa expressing Myc-tagged Apo-SpyCas9 without sgRNA; immunoblot (FIGS. 3D, 7C). In general terms: In western blotting, separated proteins are transferred to a membrane and probed.

For assay [1], the target named is T2, Myc-tagged SpyCas9-sgRNA (Streptococcus pyogenes, UniProt Q99ZW2 1-1368).
T2 construct: not shown: 3xMyc tag at the C-terminus
Nature of the assay: discussion of the co-immunoprecipitation results; state of SpyCas9 not named there.

For assay [2], the target named is T2, Myc-tagged SpyCas9-sgRNA. Nature of the assay: co-immunoprecipitation of Myc-tagged SpyCas9-sgRNA from P. aeruginosa co-expressing GST-Acr; immunoblot and Coomassie gel (FIG. 3B).

T1 sequence (Q99ZW2 whole entry): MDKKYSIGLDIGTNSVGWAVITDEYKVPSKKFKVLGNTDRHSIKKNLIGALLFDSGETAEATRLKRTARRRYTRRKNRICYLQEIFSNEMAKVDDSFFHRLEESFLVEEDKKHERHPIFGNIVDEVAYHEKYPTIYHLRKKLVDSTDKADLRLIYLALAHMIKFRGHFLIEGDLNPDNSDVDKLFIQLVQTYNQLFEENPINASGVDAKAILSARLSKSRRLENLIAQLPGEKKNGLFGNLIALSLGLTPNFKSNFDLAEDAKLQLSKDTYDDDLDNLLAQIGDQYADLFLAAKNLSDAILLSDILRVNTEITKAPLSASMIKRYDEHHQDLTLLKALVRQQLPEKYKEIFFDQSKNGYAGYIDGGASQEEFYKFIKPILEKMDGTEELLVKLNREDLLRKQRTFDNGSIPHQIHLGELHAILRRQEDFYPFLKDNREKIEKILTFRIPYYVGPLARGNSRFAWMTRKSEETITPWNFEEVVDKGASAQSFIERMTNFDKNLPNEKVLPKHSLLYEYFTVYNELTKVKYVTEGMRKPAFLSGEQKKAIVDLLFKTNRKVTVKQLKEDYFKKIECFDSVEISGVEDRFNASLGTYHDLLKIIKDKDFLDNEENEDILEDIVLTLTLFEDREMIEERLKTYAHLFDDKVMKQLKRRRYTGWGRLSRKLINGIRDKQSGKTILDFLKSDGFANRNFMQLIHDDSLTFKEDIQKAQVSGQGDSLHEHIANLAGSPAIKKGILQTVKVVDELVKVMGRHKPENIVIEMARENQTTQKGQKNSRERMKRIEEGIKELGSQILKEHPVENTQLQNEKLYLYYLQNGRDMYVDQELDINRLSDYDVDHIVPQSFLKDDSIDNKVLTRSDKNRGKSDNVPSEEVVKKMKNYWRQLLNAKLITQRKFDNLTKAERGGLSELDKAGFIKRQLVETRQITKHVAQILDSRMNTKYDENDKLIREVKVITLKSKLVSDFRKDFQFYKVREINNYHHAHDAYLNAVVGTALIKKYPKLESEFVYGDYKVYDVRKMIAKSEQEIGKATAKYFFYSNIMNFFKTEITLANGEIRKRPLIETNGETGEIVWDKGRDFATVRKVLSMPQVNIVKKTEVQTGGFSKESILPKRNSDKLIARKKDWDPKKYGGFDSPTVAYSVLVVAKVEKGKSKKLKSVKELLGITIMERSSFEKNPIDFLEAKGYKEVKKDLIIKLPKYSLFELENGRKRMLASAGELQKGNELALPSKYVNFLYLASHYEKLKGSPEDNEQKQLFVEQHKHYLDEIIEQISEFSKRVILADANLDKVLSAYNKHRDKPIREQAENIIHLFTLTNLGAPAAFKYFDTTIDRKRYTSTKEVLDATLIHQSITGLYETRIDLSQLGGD
T2 sequence (Q99ZW2 whole entry): as above

B1: GST-AcrIIA17_Sga (other)
chain: MKISVDSEKLLNEAINDFDIFGEDFNVYAIYSYREDYDFEYISDYVDADEPTRDEFETEEDYQEVMKDFKENLDSLKFTKHKKMTIADLVHELWEQNRIF
notes: also called GST-AcrIIA7_Sga
As to B1, the binding result in the assay with Myc-tagged Apo-SpyCas9 and with Myc-tagged SpyCas9-sgRNA [1] was “binds” in each case.

B2: GST-AcrIIA19_Ssim (other)
chain: MKLIVEVEETNYKNLVNYTKLTNESHNILVNRLISEYITKPYELRLDLSERYSNRDLIEFKFMLIEYCKEALQDIKELANSDEAYETDEAFEAVFRQLFEEVISNPDTVLKAFHSYTSFLEENK
For the molecule B2, the binding result in the assay with Myc-tagged Apo-SpyCas9 and with Myc-tagged SpyCas9-sgRNA [1] was “binds” each time.

B3: GST-AcrIIA16_Lmo (other)
chain: MGYIGTKRSERSQDAIEDYEVPLNHFNKDLIQAFIDENEAYDTLKTKKVRLWKFVAPRAGATSWHHTGTYYNKTDHYSLEKVADELLQNGDEWEEQFKAYVKEEQETATSEPVFLSVIKVQIWGGSMKRPKLVGHEVVMGVKKEGWLHAVSKATQSKYKLSANKVEMQKHYSLEDYSALTKDFPEFKAQKRAINKKMKEMYN
For B3, the binding result with Myc-tagged Apo-SpyCas9 and in the assay with Myc-tagged SpyCas9-sgRNA [2] was “binds” in each case.
